Like-named read-outs stand apart in the source and are kept apart here.
Key:
[1] = target: IgG4 (Homo sapiens, UniProt P01861); format: binding; design: all human subtypes derived from myeloma patients; purchased Calbiochem 400126; host or cells: myeloma patients
In short: (§1)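 Read-out is A280 of unbound IgG (1.4 mg/ml extinction coefficient), with percent bound derived against non-filtered or negative controls. Targets were incubated with immobilized peptides in PBST or TBST for 1-1.5 h at room temperature. Hydrolyzed Sepharose and immobilized Protein A serve as negative and positive controls.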

[2] = system: human IgG; assay: Dynamic (mini-column) binding capacity
Method: These media were used to determine the effect of ligand density on human IgG binding capacity in both static (filterplate) and dynamic (mini-column) modes with commercial immobilized recombinant Protein A (Repligen, IPA400) at a single density as control.
The IgG solution was loaded onto the column at a flow rate of 0.2 ml/minute (170 cm/hr). […] At the end of the loading period, the column was washed with PBS until the absorbance at 280 nm of the column eluant returned to baseline. […] Neutralizing the pH of the eluted fractions was unnecessary since the total IgG eluted was determined by total protein absorbance at 280 nm.
To establish total media capacities, IgG was loaded onto the columns until the absorbances of the column load and flow through streams were identical (loading to full capacity). After washing the column to baseline, bound IgG was eluted and the total amount captured from this elution fraction determined. The total capacity of the media (mg IgG/ml media) as total IgG captured divided by the column bed volume was calculated.
Additionally, column capacities at 10% breakthrough were calculated from the online A280 measurements of column flowthrough streams. The A280 curves obtained for the column of interest and for an equivalent “blank” column containing hydrolyzed Sepharose FF 4 media were aligned. The difference in areas between these curves (for a retained and non-retained target) from the time of injection to the time at which the A280 value for the column of interest had risen to 10% of the maximum A280 absorbance (100%) obtained for the load solution at 100% IgG capture saturation (10% breakthrough) was graphically integrated. A standard curve was used to relate the integrated area to mg IgG bound and capacity calculated as total IgG bound divided by column bed volume.

[3] = target: IgG3 (Homo sapiens, UniProt P01860); format: binding; design: all human subtypes derived from myeloma patients; purchased Calbiochem 400124; host or cells: myeloma patients
In short: (§2)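 Static binding, peptide resin + IgG, 1-1.5 h RT with shaking, PBST pH 7.2 or TBST pH 7.5. Flow-through read at A280 vs buffer blank; % bound = control minus unbound. Elution at pH 8.5 bicarbonate and/or pH 4.0 citrate, 30-60 min.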

[4] = system: mouse IgG; format: binding
In short: as §2

[5] = system: human IgG; format: binding
In short: as §2

[6] = system: bovine IgG; format: binding
In short: as §2

[7] = target: T1, human IgG2 (Homo sapiens, UniProt P01859); format: binding
T1 construct: all human subtypes derived from myeloma patients; purchased Calbiochem 400122; host or cells: myeloma patients
In short: as §1

[8] = target: T2, human IgG1 (Homo sapiens, UniProt P01857); format: binding
T2 construct: all human subtypes derived from myeloma patients; purchased Calbiochem 400120; host or cells: myeloma patients
In short: as §2

[9] = system: goat IgG; format: binding
In short: as §2

[10] = Table 9, immobilized peptide, 5.0 mg/ml resin load
[11] = Table 10, elution 0.1 M sodium bicarbonate buffer, pH 8.5
[12] = Table 10, elution 0.1 M sodium citrate buffer, pH 4.0
[13] = Table 13, average ligand density 1.8 μM/ml
[14] = Table 14, average ligand density 1.8 μM/ml

T1 sequence (P01859 1-326 isoform P01859-1): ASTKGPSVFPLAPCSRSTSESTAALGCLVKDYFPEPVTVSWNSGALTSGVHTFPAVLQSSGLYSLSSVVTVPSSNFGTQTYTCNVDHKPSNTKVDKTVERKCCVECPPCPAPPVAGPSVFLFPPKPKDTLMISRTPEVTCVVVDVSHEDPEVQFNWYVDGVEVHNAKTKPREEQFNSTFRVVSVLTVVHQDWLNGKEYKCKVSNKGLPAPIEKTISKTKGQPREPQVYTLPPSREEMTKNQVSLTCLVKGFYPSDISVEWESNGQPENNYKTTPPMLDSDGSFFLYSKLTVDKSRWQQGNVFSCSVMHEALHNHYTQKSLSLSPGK
Chain of IgG3 (P01860 1-377 isoform P01860-1): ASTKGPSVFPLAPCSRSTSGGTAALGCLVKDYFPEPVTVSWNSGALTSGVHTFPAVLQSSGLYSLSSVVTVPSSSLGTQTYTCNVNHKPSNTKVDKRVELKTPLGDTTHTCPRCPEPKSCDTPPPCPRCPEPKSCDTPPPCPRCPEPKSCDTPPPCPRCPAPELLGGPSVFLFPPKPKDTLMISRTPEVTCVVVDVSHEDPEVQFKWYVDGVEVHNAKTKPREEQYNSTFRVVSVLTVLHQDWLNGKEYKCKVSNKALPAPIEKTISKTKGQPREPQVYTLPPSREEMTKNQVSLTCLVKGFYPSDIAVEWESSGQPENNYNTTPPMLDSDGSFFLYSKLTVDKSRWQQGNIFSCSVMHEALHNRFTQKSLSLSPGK
Chain of IgG4 (P01861 1-327 isoform P01861-1): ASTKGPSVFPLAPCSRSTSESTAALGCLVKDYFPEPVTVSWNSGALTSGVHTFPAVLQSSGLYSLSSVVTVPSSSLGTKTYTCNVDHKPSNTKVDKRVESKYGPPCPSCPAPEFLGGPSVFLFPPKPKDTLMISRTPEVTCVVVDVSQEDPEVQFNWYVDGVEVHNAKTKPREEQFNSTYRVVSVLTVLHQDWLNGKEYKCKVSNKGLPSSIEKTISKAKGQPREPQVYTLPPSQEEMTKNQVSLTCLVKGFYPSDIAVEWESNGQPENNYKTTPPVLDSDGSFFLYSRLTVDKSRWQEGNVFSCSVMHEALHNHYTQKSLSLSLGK
T2 sequence (P01857 1-330 isoform P01857-1): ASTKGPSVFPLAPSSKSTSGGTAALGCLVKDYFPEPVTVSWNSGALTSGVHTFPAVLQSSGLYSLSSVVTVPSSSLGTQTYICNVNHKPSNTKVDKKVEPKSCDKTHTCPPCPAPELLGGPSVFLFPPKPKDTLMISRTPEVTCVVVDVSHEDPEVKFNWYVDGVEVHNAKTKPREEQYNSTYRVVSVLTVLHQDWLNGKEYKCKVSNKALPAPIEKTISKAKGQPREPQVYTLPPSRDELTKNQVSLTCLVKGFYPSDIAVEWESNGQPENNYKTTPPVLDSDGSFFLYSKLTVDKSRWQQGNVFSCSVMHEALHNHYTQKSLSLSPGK

Prot. A: immobilized recombinant Protein A (RepliGen Corp., product no. IPA-400), positive control [reference compound]
% IgG Capture - Batch Binding, Human IgG4 [1, 10]: 96% | Human IgG4 bdg % (% of Total Load) ([1]; Table 10, batch binding): 92% | Human IgG4 elu pH 8.5 (% of Total Load) [1, 11]: 2% | Human IgG4 elu pH 4.0 (% of Total Load) [1, 12]: 95% | hIgG4 elution pH 2.5 (% of Total Load) ([1]; Table 13): 70% | hIgG4 elution pH 3.0 (% of Total Load) ([1]; Table 13): 77% | hIgG4 elution pH 3.5 (% of Total Load) ([1]; Table 13): 87% | hIgG4 elution pH 4.5 (% of Total Load) ([1]; Table 13): 27% | hIgG4 elution pH 5.5 (% of Total Load) ([1]; Table 13): 6% | hIgG4 elution pH 9.0 (% of Total Load) ([1]; Table 13): 7% | hIgG4 elution pH 9.5 (% of Total Load) ([1]; Table 13): 8% | hIgG4 Bound (% of Total Load) [1, 13]: 89% | Capacity at 10% breakthrough as % of total dynamic capacity [2]: about 75% | Capacity (mg IgG/mL resin) 10% Breakthrough ([2]; Ligand Density not determined): 12.9 mg IgG/mL resin | Capacity (mg IgG/mL resin) Total Dynamic ([2]; Ligand Density not determined): 16.3 mg IgG/mL resin | % IgG Capture - Batch Binding, Human IgG3 [3, 10]: 1% | Human IgG3 bdg % (% of Total Load) ([3]; Table 10, batch binding): 5% | Human IgG3 elu pH 8.5 (% of Total Load) [3, 11]: 0% | Human IgG3 elu pH 4.0 (% of Total Load) [3, 12]: 0% | hIgG3 elution pH 2.5 (% of Total Load) ([3]; Table 13): 0% | hIgG3 elution pH 3.0 (% of Total Load) ([3]; Table 13): 0% | hIgG3 elution pH 3.5 (% of Total Load) ([3]; Table 13): 0% | hIgG3 elution pH 4.5 (% of Total Load) ([3]; Table 13): 0% | hIgG3 elution pH 5.5 (% of Total Load) ([3]; Table 13): 0% | hIgG3 elution pH 9.0 (% of Total Load) ([3]; Table 13): 0% | hIgG3 elution pH 9.5 (% of Total Load) ([3]; Table 13): 0% | hIgG3 Bound (% of Total Load) [3, 13]: 0% | % IgG Capture - Batch Binding, Mouse IgG ([4]; Table 11, unfractionated IgG): 77% | % IgG Capture - Batch Binding, Mouse IgG [4, 14]: 69% | % IgG Capture - Batch Binding, Human IgG ([5]; Table 11, unfractionated IgG): 86% | % IgG Capture - Batch Binding, Human IgG [5, 14]: 81% | % IgG Capture - Batch Binding, Bovine IgG ([6]; Table 11, unfractionated IgG): 72% | % IgG Capture - Batch Binding, Bovine IgG [6, 14]: 60% | % IgG Capture - Batch Binding, Human IgG2 [7, 10]: 92% | Human IgG2 bdg % (% of Total Load) ([7]; Table 10, batch binding): 93% | Human IgG2 elu pH 8.5 (% of Total Load) [7, 11]: 8% | Human IgG2 elu pH 4.0 (% of Total Load) [7, 12]: 75% | hIgG2 elution pH 2.5 (% of Total Load) ([7]; Table 13): 75% | hIgG2 elution pH 3.0 (% of Total Load) ([7]; Table 13): 75% | hIgG2 elution pH 3.5 (% of Total Load) ([7]; Table 13): 76% | hIgG2 elution pH 4.5 (% of Total Load) ([7]; Table 13): 65% | hIgG2 elution pH 5.5 (% of Total Load) ([7]; Table 13): 22% | hIgG2 elution pH 9.0 (% of Total Load) ([7]; Table 13): 13% | hIgG2 elution pH 9.5 (% of Total Load) ([7]; Table 13): 18% | hIgG2 Bound (% of Total Load) [7, 13]: 85% | % IgG Capture - Batch Binding, Human IgG1 [8, 10]: 95% | Human IgG1 bdg % (% of Total Load) ([8]; Table 10, batch binding): 93% | Human IgG1 elu pH 8.5 (% of Total Load) [8, 11]: 2% | Human IgG1 elu pH 4.0 (% of Total Load) [8, 12]: 79% | hIgG1 elution pH 2.5 (% of Total Load) ([8]; Table 13): 80% | hIgG1 elution pH 3.0 (% of Total Load) ([8]; Table 13): 80% | hIgG1 elution pH 3.5 (% of Total Load) ([8]; Table 13): 86% | hIgG1 elution pH 4.5 (% of Total Load) ([8]; Table 13): 29% | hIgG1 elution pH 5.5 (% of Total Load) ([8]; Table 13): 3% | hIgG1 elution pH 9.0 (% of Total Load) ([8]; Table 13): 3% | hIgG1 elution pH 9.5 (% of Total Load) ([8]; Table 13): 3% | hIgG1 Bound (% of Total Load) [8, 13]: 96% | % IgG Capture - Batch Binding, Goat IgG ([9]; Table 11, unfractionated IgG): 23% | % IgG Capture - Batch Binding, Goat IgG [9, 14]: 20%

From US20030199671A1, “Binding molecules for Fc-region polypeptides” (priority 2001, published 2003)
